Consider one substance from PMC3507442.

For this assay, the target named is vimentin (Rat2) (UniProt P31000). Description: co-immunoprecipitation with Flag-Beclin 1. As to conditions: reference: wild-type Flag-Beclin 1; sites S234,S295.

Consider “Beclin 1 (from UniProt Q14457) S234A/S295A (AA)”, for which the “binding against the reference” value was “weaker”.
